# Test results published in IntAct's records for PubMed 23972470.
# B1: Serine/threonine-protein kinase 3 (Homo sapiens), Q13188 (parent)
# chain: MEQPPAPKSKLKKLSEDSLTKQPEEVFDVLEKLGEGSYGSVFKAIHKESGQVVAIKQVPVESDLQEIIKEISIMQQCDSPYVVKYYGSYFKNTDLWIVMEYCGAGSVSDIIRLRNKTLIEDEIATILKSTLKGLEYLHFMRKIHRDIKAGNILLNTEGHAKLADFGVAGQLTDTMAKRNTVIGTPFWMAPEVIQEIGYNCVADIWSLGITSIEMAEGKPPYADIHPMRAIFMIPTNPPPTFRKPELWSDDFTDFVKKCLVKNPEQRATATQLLQHPFIKNAKPVSILRDLITEAMEIKAKRHEEQQRELEEEEENSDEDELDSHTMVKTSVESVGTMRATSTMSEGAQTMIEHNSTMLESDLGTMVINSEDEEEEDGTMKRNATSPQVQRPSFMDYFDKQDFKNKSHENCNQNMHEPFPMSKNVFPDNWKVPQDGDFDFLKNLSLEELQMRLKALDPMMEREIEELRQRYTAKRQPILDAMDAKKRRQQNF
# partner: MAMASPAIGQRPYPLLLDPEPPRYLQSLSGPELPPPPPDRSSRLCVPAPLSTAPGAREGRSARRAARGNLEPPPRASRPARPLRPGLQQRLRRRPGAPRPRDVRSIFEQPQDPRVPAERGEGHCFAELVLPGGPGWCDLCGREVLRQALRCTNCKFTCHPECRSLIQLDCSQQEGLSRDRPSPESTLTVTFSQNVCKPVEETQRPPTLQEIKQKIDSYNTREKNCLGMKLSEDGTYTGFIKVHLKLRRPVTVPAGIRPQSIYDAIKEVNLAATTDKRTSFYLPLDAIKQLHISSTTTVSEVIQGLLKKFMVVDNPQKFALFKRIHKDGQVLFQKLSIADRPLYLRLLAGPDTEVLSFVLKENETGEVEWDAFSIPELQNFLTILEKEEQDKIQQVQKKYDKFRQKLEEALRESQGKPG
# Variants of: B1
# Conditions: with RASSF5, Q8WWW0-1
row,effect of a mutation on the interaction,Variant
1,decreasing interaction strength,MEQPPAPKSKLKKLSEDSLTKQPEEVFDVLEKLGEGSYGSVFKAIHKESGQVVAIKQVPVESDLQEIIKEISIMQQCDSPYVVKYYGSYFKNTDLWIVMEYCGAGSVSDIIRLRNKTLIEDEIATILKSTLKGLEYLHFMRKIHRDIKAGNILLNTEGHAKLADFGVAGQLTDTMAKRNTVIGTPFWMAPEVIQEIGYNCVADIWSLGITSIEMAEGKPPYADIHPMRAIFMIPTNPPPTFRKPELWSDDFTDFVKKCLVKNPEQRATATQLLQHPFIKNAKPVSILRDLITEAMEIKAKRHEEQQRELEEEEENSDEDELDSHTMVKTSVESVGTMRATSTMSEGAQTMIEHNSTMLESDLGTMVINSEDEEEEDGTMKRNATSPQVQRPSFMDYFDKQDFKNKSHENCNQNMHEPFPMSKNVFPDNWKVPQDGDFDFLKNLSLEELQMRLKALDPMMEREIEELRQRYTAARQPILDAMDAKKRRQQNF [K473A]
